Target: eEF1A1 (eukaryotic elongation factor 1 subunit A1), MYC/DDK-tagged (human) (UniProt P68104)
Assay: BLI; biotinylated eEF1 subunit (eEF1A1, eEF1B, eEF1D or eEF1G) immobilised on streptavidin biosensor; RT subunits, RT heterodimer, Gag or RTp66 mutants as analytes at 90, 30 and 10 nM (mutants at 90 nM); kinetic buffer 1 mM phosphate, 15 mM NaCl, 0.002% Tween-20, 0.1 mg/ml gelatine, 1000 rpm, OctetRed

Sequence of eEF1A1 (eukaryotic elongation factor 1 subunit A1), MYC/DDK-tagged (human) (P68104 whole entry): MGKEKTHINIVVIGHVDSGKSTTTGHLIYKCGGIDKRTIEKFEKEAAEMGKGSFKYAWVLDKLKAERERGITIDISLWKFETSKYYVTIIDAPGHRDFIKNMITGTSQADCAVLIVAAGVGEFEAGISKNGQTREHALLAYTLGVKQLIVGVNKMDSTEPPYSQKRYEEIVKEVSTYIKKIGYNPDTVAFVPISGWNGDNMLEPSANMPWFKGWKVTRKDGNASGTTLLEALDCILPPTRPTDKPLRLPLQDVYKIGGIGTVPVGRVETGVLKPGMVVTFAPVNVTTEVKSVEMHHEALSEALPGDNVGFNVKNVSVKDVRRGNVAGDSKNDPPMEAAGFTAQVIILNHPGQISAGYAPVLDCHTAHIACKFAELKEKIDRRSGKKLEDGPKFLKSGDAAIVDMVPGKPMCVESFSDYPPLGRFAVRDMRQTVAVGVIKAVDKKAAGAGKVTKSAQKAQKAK

HIV-1 RT p66/p51 heterodimer, purified (from UniProt P04585 588-1147; P04585 588-1027) (complex)
Kd: 3.75 nM
koff: 0.000207 s⁻¹
kon: 55200 M⁻¹ s⁻¹

HIV-1 RT p51, 6xHis-tagged, purified (from UniProt P04585 588-1027) (natural protein; other documents disagree on this pair)
Kd: 4.13 nM
koff: 0.000185 s⁻¹
kon: 44800 M⁻¹ s⁻¹

Source: PMC4666417
